Target: the molecule itself
Experiment: crystal structure; ExoMA2 in complex with Tris (1.75 Å) and with β-D-Araf (1.35 Å); dimer in the asymmetric unit; sitting-drop vapor diffusion, 20 °C

B1: ExoMA2 (MIAR_33170), GH116 exo-β-D-arabinofuranosidase from Microbacterium arabinogalactanolyticum, recombinant (enzyme, UniProt A0AAJ6N6D6 1-867, looked up)
chain: MSKIKSRRARRIPHTAESVAFPLGGIGTGNVSLGARGELRDWEFENLPDKGRLNPRSFFAIHAAPQGGPSATRVLEARSSGRHDRDAGYGFDELAGLPRLDSAGLHGEYPVVDIDFTDATLPVTVSLHAFTPLVPLDADASGIPAAVLRYRVVNPGDAPVTVTVVGSMSHTAGRGAPGPDAPWGMRGTQSVRWRESDGIRGLDFDIDLDHDDPGYGTMSLTTTDSSTTVKPQWVTSYWPDGARLFWNDLADDGLLAPEARLTLEDKPRGLFAERDADPDAPALTEEQMLAKLPRVRTGSLGIVHTLAPGEERDFEFVLAWSFPNRRRGWHGHIIFDDALEDGAPDLRDELGPIVRNHYAVRWPDAWAAAAQLHRDLPALEGATDAFVEELYGGSLDPVLADAVGANIAALRSTTCFVLESPTPELGDGPVFAAWEGSFDHGGSCEGTCTHVWSYAQTAAWLFPGLERSARRAEYLLETDESGAQKFRGNRIFGAPRWFIGPAVDGQLGTFLRLHREWRFCGDDEFLRELWPAAARTLDYAAREWDHDGDGLLDGEMHNTYDIEFHGVEPLSNIIHLAALRAGVRMAGHLGDTARAQEWALRADHVAAAIEGVLWNGEYYRQVIDDVDAHRYQYGDGVLSDQLLGQFHAFLGGLGYLLPEAHVRSALDAIVQHNHRGDLRDHESTQRVYALNDEGGLLLASWPEGGRPALPFVYADEVWTGIEHQVAVSLLFAGRYDDALRIERTLRARYDGAHRSPWNEIECGNHYARSLASWGLLIGASGAQWDAGARTLSFDPVLPGDARFLFTTATGWGGVEIGDDVITLRLHGGALDLDELRLRGEVAGRGIHLDAGETRTLTLTLEHHHHHH
notes: ExoMA2, product of gene MIAR_33170 of Microbacterium arabinogalactanolyticum JCM 9171; primers are in Supplementary Data 3; source: E. coli BL21 (DE3), purified (IMAC, anion exchange chromatography, SEC)
stoichiometry N: 2
